Here are results for five molecules from patent US20210277112A1 (BIOND BIOLOGICS, published 2021).

For assay [1], the target named is T1, recombinant ILT2 (human, UniProt Q8NHL6 24-461).
T1 construct: also called LILRB1; LIR1
The experiment in a line: binding ELISA, hILT2-Fc; positive control is GHI/75 by paragraph 227. Background: ELISA stands for enzyme-linked immunosorbent assay.

Assay [2] has as its target T2, LILRA1 (UniProt O75019 17-461, limits assumed). The experiment in a line: binding ELISA, column hLILRA1-His, negative control.
In assay [3] the target is T1, recombinant ILT2. The experiment in a line: binding ELISA, hILT2-Fc, negative control.
Assay [4] concerns the target T3, ILT6 (UniProt Q8N6C8 24-439). The experiment in a line: binding ELISA, column hILT6-His, negative control.
Assay [5] deals with T4, PIRB (UniProt P97484 25-642, limits assumed).
T4 sequence (looked up): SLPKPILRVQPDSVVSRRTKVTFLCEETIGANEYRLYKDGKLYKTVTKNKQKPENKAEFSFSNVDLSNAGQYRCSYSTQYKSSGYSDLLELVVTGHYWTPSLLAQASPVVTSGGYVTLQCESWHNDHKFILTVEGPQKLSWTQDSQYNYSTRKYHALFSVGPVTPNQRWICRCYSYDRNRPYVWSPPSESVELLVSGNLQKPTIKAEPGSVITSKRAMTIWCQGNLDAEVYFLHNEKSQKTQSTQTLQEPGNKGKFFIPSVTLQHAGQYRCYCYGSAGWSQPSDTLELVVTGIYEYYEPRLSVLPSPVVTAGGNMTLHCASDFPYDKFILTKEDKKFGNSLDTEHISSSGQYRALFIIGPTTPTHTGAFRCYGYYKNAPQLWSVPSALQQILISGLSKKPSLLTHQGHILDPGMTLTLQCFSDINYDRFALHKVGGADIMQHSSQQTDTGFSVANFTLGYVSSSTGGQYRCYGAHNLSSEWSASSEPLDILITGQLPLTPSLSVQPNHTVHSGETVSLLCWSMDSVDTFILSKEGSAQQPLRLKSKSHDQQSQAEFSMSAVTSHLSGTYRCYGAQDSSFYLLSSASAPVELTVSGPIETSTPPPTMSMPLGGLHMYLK
The experiment in a line: binding ELISA, column PIRB, negative control.

Assay [6] has as its target T5, recombinant human ILT2-Fc conjugated with biotin (human, UniProt Q8NHL6 24-458, limits assumed, conjugated with biotin (sites not given)).
T5 construct: It is written here as ILT2 then Fc; also called ILT2-biotin; biotinylated ILT2; not shown: Fc portion of human IgG1
The experiment in a line: flow cytometry blocking assay: ILT2-biotin binding to cells expressing HLA-G. How it is done:
(§1) Flow cytometry blocking assay—Recombinant human ILT2 protein fused with the Fc portion of human IgG1 at the N terminal was conjugated with biotin (Innova bioscience). A total of 5×10⁵ A375/HLA-G1 cells were incubated in a volume of 100 μL in the presence of anti-ILT2 clone #1 or isotype matched control mAb and ILT2-Fc conjugated with biotin (10 μg/mL) for 30 minutes at room temperature. After several washing steps, streptavidin-PE was added at a final concentration of 0.2 μg/mL and incubated for 30 min on ice followed by FACS analysis.
(§2) The ability of the generated anti-ILT2 antibodies to block the interaction between HLA-G and ILT2 was tested using four different assays. First, a blocking flow cytometry assay was performed. HLA-G transfected A375 cells were incubated with biotinylated ILT2 in the presence of the antibodies of the invention and a positive control antibody. The commercially available anti-ILT2 antibody GHI/75 (BioLegend, cat #333704) was used as the positive control. The binding of ILT2-biotin to the cells was determined using Streptavidin-PE by flow cytometry analysis (FIG. 8A). The percent of blocking was determined by normalizing to a negative control (ILT2 binding in the presence of control IgG). […] The percentage of blocking was calculated at various concentrations of antibody (FIG. 8C).
A general note: In flow cytometry, cells or beads pass a laser one at a time.

For assay [7], the target named is T6, ILT2/CD3z chimera on BW5417.3 cells (human; mouse, UniProt P24161 31-164, limits assumed).
T6 construct: domain: trans-membrane and cytoplasmic residues; Expressed on the surface of the mouse BW T cell line; also called BW-ILT2; BW/ILT2z
T6 sequence (P24161 other isoform, or with tags, fused parts or gaps mutant limits assumed): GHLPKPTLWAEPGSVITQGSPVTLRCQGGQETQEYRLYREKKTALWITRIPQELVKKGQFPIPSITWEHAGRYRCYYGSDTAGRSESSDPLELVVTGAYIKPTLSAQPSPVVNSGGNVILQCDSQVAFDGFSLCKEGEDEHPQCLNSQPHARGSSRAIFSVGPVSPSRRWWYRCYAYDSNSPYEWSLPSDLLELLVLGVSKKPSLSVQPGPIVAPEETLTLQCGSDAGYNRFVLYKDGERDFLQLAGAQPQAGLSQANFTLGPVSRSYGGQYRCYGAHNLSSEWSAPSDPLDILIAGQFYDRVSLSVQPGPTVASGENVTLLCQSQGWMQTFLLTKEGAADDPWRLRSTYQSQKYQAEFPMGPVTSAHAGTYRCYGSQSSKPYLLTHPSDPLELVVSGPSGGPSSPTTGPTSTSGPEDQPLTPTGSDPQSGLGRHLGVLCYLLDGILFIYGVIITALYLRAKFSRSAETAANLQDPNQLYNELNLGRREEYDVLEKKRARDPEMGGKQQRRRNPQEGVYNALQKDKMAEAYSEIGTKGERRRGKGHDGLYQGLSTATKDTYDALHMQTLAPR
The experiment in a line: flow cytometry titration on BW cells transfected with human ILT2, y axis FAB.

Assay [8] concerns the target T5, recombinant human ILT2-Fc conjugated …. The experiment in a line: flow cytometry blocking assay: ILT2-biotin binding to cells expressing HLA-G. As to the method: as §1, §2
The source holds these as a separate data set.

For assay [9], the target named is T2, LILRA1. The experiment in a line: binding ELISA, column hLILRA1-His.
In assay [10] the target is T3, ILT6. The experiment in a line: binding ELISA, column hILT6-His.
Assay [11] addresses T1, recombinant ILT2. The experiment in a line: competition ELISA on ILT2: biotinylated 15G8 at 1 µg/ml as the labelled competitor, unbiotinylated 15G8 varied. As to the method: This raises the question of the epitope of GHI/75 and other commercial antibodies. Though the epitopes of these antibodies are not published a competition ELISA assay was performed to see if 15G8 and GHI/75 and HP-F1 could bind ILT2 at the same time. Biotinylated 15G8 antibody was used at a constant concentration (1 μg/ml) in an ILT2 binding ELISA. GHI/75 and HP-F1 were added in increasing concentrations and competition was assessed. Regardless of the amount of these two antibodies added, neither one competed with 15G8 for binding to ILT2 (FIG. 19). In contrast, when naked (unbiotinylated) 15G8 was added, the binding decreased in a dose dependent manner as expected. […] This makes 15G8 the first anti-ILT2 antibody ever identified to bind this epitope, to specifically block interaction with B2M and to be able to simultaneously activate/recruit T cells, NK cells and macrophages/dendritic cells against cancer.

The target of assay [12] is T4, PIRB. The experiment in a line: binding ELISA, column PIRB.

Positions count from the first letter of the chain named. Like-named read-outs stand apart in the source and are kept apart here.

T5 sequence (Q8NHL6 24-458 limits assumed): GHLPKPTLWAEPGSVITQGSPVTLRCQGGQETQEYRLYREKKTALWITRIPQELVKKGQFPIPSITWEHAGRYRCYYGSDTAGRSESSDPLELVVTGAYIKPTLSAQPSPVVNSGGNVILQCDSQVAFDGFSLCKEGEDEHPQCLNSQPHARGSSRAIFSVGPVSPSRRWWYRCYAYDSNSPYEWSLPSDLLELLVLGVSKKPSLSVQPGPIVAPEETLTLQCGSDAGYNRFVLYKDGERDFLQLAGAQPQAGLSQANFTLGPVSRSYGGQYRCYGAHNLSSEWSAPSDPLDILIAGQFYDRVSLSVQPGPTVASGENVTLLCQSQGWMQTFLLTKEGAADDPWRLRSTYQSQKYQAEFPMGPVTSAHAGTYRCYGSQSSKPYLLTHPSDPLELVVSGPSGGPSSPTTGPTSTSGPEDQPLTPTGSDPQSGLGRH
T1 sequence (Q8NHL6 24-461 limits assumed): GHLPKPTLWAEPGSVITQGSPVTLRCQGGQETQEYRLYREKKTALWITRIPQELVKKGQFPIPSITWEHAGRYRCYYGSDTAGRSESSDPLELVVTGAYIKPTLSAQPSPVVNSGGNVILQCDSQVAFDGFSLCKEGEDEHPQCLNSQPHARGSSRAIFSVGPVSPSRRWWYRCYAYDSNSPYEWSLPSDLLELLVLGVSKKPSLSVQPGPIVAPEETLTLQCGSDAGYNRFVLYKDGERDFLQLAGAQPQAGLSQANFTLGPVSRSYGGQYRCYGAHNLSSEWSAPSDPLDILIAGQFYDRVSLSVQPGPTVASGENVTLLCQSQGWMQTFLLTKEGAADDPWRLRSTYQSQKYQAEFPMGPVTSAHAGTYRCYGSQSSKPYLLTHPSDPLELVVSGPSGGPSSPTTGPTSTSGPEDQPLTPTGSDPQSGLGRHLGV
T3 sequence (Q8N6C8 24-439 limits assumed): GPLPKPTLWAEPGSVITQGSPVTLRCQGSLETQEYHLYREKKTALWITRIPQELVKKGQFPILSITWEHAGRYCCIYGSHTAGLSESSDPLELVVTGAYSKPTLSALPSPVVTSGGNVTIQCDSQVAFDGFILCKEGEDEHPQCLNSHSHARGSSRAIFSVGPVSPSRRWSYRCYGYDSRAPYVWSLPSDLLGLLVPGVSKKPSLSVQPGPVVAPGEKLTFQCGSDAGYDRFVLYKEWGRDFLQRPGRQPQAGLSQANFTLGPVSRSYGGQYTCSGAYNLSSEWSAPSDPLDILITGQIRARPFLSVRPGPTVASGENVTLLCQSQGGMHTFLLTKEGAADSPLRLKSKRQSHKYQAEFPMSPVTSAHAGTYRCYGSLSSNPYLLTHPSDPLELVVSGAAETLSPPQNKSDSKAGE
T2 sequence (O75019 17-461 limits assumed): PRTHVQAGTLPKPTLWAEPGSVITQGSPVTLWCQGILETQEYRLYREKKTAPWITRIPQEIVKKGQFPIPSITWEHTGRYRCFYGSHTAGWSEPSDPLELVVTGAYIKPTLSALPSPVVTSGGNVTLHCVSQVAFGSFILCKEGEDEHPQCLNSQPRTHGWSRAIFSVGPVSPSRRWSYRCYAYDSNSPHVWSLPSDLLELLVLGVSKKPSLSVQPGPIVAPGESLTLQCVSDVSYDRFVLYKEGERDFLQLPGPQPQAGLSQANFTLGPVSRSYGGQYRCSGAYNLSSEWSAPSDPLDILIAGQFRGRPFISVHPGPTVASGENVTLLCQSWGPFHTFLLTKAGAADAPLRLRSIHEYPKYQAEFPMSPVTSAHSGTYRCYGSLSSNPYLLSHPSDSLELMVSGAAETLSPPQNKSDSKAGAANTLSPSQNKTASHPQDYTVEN

“GHI/75 commercial mouse anti-human ILT2 antibody (BioLegend, Cat. No. 333704)”: the ELISA (OD) in assay [1] was determined as 2.45 OD.

With Negative, the ELISA (OD) amounted to 0.13 OD in assay [2], 0.05 OD in assay [3], 0.071 OD in assay [4] and 0.0575 OD in [5].

B1: chimeric 15G8 (antibody, V domains shown)
VH: DVQLQGSGPGLVKPSQSLSLTCSVTGYSITSGYYWNWIRQFPGNKLEWMGYISYDGSNNYNPSLKNRISITRDTSKNQFFLKLNSVTSEDTATYYCAHGYSYYYAMDCWGQGTSVTVSS
VL: DIQMTQTTSSLSASLGDRVTISCRTSQDISNYLNWYQQKPDGTVKLLISYTSRLHSGVPSRFSGSGSGTDYSLTISNLEQEDIATYFCQQGNTLPTFGSGTKLEIK
notes: Constant regions not described; also called chimeric murine 15G8
One may read the EC50 (read off the curve) as the concentration at which the effect is half-maximal. Read a high EC50 (read off the curve) as a less potent agent. As for B1, in assay [6], the “IC50 (read off the curve)” value was around 0.2 µg/mL. In assay [7], the “EC50 (read off the curve)” value was around 0.5 µg/mL.

B2: humanized 15G8 (alanine variant) (antibody, V domains shown)
VH: B1 VH with Q16E, S17T, N44K, S69T, T71S, F80S, S88A, E89A, C108A
VL: DIQMTQSPSSLSASVGDRVTITCRTSQDISNYLNWYQQKPGKAVKLLISYTSRLHSGVPSRFSGSGSGTDYTLTISSLQPEDFATYYCQQGNTLPTFGQGTKLEIK
notes: also called 15G8 humanized antibody; humanized antibody 15G8
Consider B2, for which the “IC50 (read off the curve)” value in [6] was around 0.2 µg/mL; in assay [8], around 0.3 µg/mL. The 50% effective concentration (EC50 (read off the curve)) in assay [7] is around 0.5 µg/mL.

B3: 15G8 (original hybridoma-derived murine anti-ILT2 antibody) (antibody, V domains shown)
VH: B1 VH
VL: B1 VL
notes: also called 15G8 antibody
As for B3, the binding result in assay [9], in assay [10] and in assay [12] was “no binding” throughout. Further, the “IC50 (read off the curve)” value in assay [11] was around 3 µg/mL.
